Results as given in article PMC3401516.

Key:
ERK2 (Rattus norvegicus) = ERK2 (Rattus norvegicus) (UniProt P63086); conditions: cited from earlier work
[1] = target: activated His6-tagged ERK2 (cleavable His6-tag construct, tag not cleaved) (Rattus norvegicus) (UniProt P63086); experiment: SEC-MALS

percent dimer [1] | stoichiometry N [1] | Substance | Kd (ERK2 (Rattus norvegicus))
– | – | ERK2 (from UniProt P63086) | 7 nM
30% | 2 | activated His6-tagged ERK2 (cleavable His6-tag construct, tag not cleaved) (from UniProt P63086 1-358) (enzyme) | –
